# ± gives the half width of the 95% confidence interval.
# Assay: folding stability dG unfold from chymotrypsin proteolysis; higher = more stable
# Outline: (§1)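 Designed mini-proteins (under 80 residues, no cysteine) in a PA-tagged cDNA display construct were digested with trypsin and chymotrypsin. Each protease was used at 11 concentrations (threefold dilutions) plus a no-protease condition, followed by sequencing. K50 was inferred by Bayesian fitting of sequencing counts, and unfolding free energy was derived against a sequence-predicted unfolded-state K50 and a shared folded-state K50, per protease or combined. Only designs with AlphaFold2 dimer inter-PAE above 15 were kept.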
row,Sequence,folding stability dG unfold [kcal/mol]
1,SMVFVEIFYDPIKKKKYIKIVIFLPPNDPEKIKELAEKIKKEIEKFFEELGLKVDKIEVFVFTFPPDFPLSA [r9_117_TrMRF],4.99 ± 0.067
2,SAGGSAGGSLVIPLPNGGRIEVLEVGEDYVLVRLVDPMPGTNKPRVSEIRLKLPPLKPPPPDKSAGGSAGGS [r12_959_TrMRF],2.14 ± 0.032
3,SAGGSAGGSAGMTVEDLEFDIPFESEEEAIEYLKKKLPKDYTIKPIGFEPENGKLKVKVTKKSAGGSAGGSA [r18_429_JUSTAS],0.789 ± 0.15
4,SAGGGVMIAIKKIDPKNGKLEIEIWMPEGFEDPDQRKEMLEMADSLADRLQELHGIPVKVTIHPFPNSAGGS [r16_304_TrROS],2.27 ± 0.076
5,SAGGSAGGSAPATITSIEVEERTGPDGRTYRVLRVRLADTGEEVEIVVPGMSLEEVLAALASSAGGSAGGSA [r18_345_TrROS_Hall],2.937 ± 0.019
6,SAGGSAGGSAMTRDVTIKVPPGVTPEEVFEKLKKENPNVTSYTTTTLPDGTITVTITIEDSSAGGSAGGSAG [r3_371_JUSTAS],4.04 ± 0.12
7,SAGGSKIEVKIEEENGTLTITVTVYDENGEQIAEITVTITLPAPKPPEKELVKAESPEEKEEALKQSAGGSA [r2_332_TrROS_Hall],1.8 ± 0.12
8,SAGGSAGGSAGGSMVKILIEKENELYEIYVPKDEIPLDELVKKAKELFPDIVKIEVFDDSAGGSAGGSAGGS [r4_235_TrMRF],1.1 ± 0.03
9,SAGGSAGGSGIKIIMEFIFPDDGYIFKIEIDIKPNPENGEPVIEMKIEMYPIDPGQPPDLKDLSAGGSAGGS [r12_700_TrROS],3.45 ± 0.071
10,SAGRIRKAIREAFGMDITSIDIDVKENPNGSKKVEIDIHMNNPSQRRRMADAIIEELGYPIKEIEITPMSAG [r5_542_TrROS],0.558 ± 0.2
11,SAGGSAGGSAGGMPIKVEEYELPNGEKILKEISPEGVVKVYKVDPVNGKKEVIEVIPINKSAGGSAGGSAGG [r7_898_JUSTAS],1.1 ± 0.073
12,SAGGEVKITVEKKGDGTVTVTITVKAKSLEDLLKALESLPGVEITKVEIEKDKETNEYTIRVTIKVKPSAGG [r13_796_TrROS_Hall],4.07 ± 0.11
13,SAGGSAGGSAKKKVIVIELPEDMTLEEALALAKALAPPGAEIVIRRDGKLYVIKIEDPEKLSAGGSAGGSAG [r3_50_TrROS_Hall],2.82 ± 0.084
14,SAGGMSPELAADPNVKRVLRFPEPGVFLAYYPEKGLLLLTPPDGKVLLIEAKPEEAEKLVESGLKPESAGGS [r16_745_TrMRF],-0.446 ± 0.19
15,SKVTIYFPNMPPEEIIDAIRKNPGKPVEIWMMPNNPDRFKNWLQDAKIEVEPQPNPDGQPWVKMEIEVPDSA [r9_1138_TrROS],0.969 ± 0.095
16,SAGGMKKYLLTLNVTLERPDSEESITLTKEVDSLEEAEKLKEEIEKKLKEEYPGRISFDVTIEEIEESAGGS [r16_475_JUSTAS],4.15 ± 0.076
17,SAGGSAGGSAGSLTLVSTSSDETEEPVVRYREVYAGPVPVRVTAEESLENPGNPRLRVVLSAGGSAGGSAGG [r11_618_JUSTAS],-0.275 ± 0.39
18,SAGGSAGGSAGGSMKTVELSSEEEAKKIVEEAKKKGIPLTLVLTDPKTGNPKTFEFPLASAGGSAGGSAGGS [r4_188_JUSTAS],-0.248 ± 0.41
19,SAGMQLLPSATVTLTNPKTGETTTVSVQALRDELAARRGTTDPAAITEADIEAWAKEQGYDPITFTLPSAGG [r19_67_JUSTAS],2.55 ± 0.027
20,SAGGSAGGSAGGSMPEGTVLSVDPSTGLKVVYFPGENKLVFEEISPSNELVKRSEFPLSSAGGSAGGSAGGS [r4_192_JUSTAS],0.436 ± 0.073
21,SAGGSAGGSAGGSMKVILDKKNNELYILLKDENGKLLLAKITLLPNGEIKIEVYDLKDLSAGGSAGGSAGGS [r4_434_TrROS_Hall],3.98 ± 0.1

# Assay: folding stability dG unfold (combined trypsin and chymotrypsin); higher = more stable
# Outline: as §1
row,Sequence,folding stability dG unfold [kcal/mol]
1,SAGGSAGGSAGGEYEIVKIEKVKNENGELYYKMIIKDKKTNKEIEIYMSLEELKKLKPKSAGGSAGGSAGGS [r10_326_TrROS_Hall],3.24 ± 0.18
2,SAGGMTIVEVEYTAYDLNSNKSVVVKAYKDPSTGKMTITSSDGVEGEFDPVTKTISLPRGSKSVTLGSAGGS [r16_743_JUSTAS],0.521 ± 0.081
3,SAVFIEVERDPGDGAYEVTIHYLIPLRPYKDPDGKQKPPVYFMIEITIRFSPNGQIRDLDIDIFPFDAPSAG [r14_246_TrROS],4.28 ± 0.37
4,SAGGFEITEEREAVKTSPPEGPLRVEERLVIEVKSEDPEKALEEAQKETGLPVEVEVDPETGSVTITVRSAG [r5_907_JUSTAS],0.448 ± 0.18
5,SAGGSAGGSAGEVVVEEKEDPSGVLTRTETYPDSVVVTEYKIAPDGKTTEPKPTILPKSESAGGSAGGSAGG [r17_72_JUSTAS],-0.337 ± 0.15
6,SAGGMEYDPETKTFHLHVPGGNLPELREAIENAPDRLVTIEVEDPLTDKPRLFTLPAEEARKFLEAGSAGGS [r16_797_TrMRF],-0.254 ± 0.095
7,SAGGSAGGSAGIRIKAFPGWKIVDIEPNPPGTIIIRYPNWVFQIRIRPNGEIEIRIVPLDSAGGSAGGSAGG [r11_612_TrROS],3.49 ± 0.083
8,SMPLKVTVEVYEPGGNPLGSKTYEVEPGETLTFTFPRPVKGRVTITDPNADNPQTVTGDPATGTLTFPLVSA [r9_272_JUSTAS],0.858 ± 0.069
9,SAGGSAGGSAGGPPPGQKVTMWVIRIEIKIKLERTPDGKLKLKIEIKISIVFITIYAPDSAGGSAGGSAGGS [r10_297_TrROS],4.6 ± 0.22
10,SAGSSLPPSLSKEEIVAALKSQGYTSVKEEKLPDPNKSRMVFTHPNSVVTVEFFPNSVTVTTVPLSVPSSAG [r5_899_JUSTAS],0.968 ± 0.23
11,SAGGSAGGMEVVERVVKLPDGTELRITIERDPEKDTAKVTITDPTTSETRTLDVTSEEEALELLSAGGSAGG [r6_465_JUSTAS],1.93 ± 0.037
12,SAGGSAGGSAGGKAKIEMESETIPFKNDDGEKYYIQIMRFEVEVGGKKVTATAISIMPLDSAGGSAGGSAGG [r7_248_TrROS],2.98 ± 0.4
13,SAGMIEIKSEDGSTFRIEFDKETGEVKVEYDKNTGVVKVTLPDGKEVEIEIEGMSLEEVLKKLEELLKKSAG [r5_447_TrROS_Hall],1.94 ± 0.22
14,SAGGSAGGDTVVIEVDMSEEEALALARALADAGKTVEIVVRDKDGRTRKITITVPPEELELPEESAGGSAGG [r6_62_TrROS_Hall],1.95 ± 0.042
15,SAGGSAGGSAPPVVRVTVPLPDGSVLEVEYFPDTGLVRVTLVDADGTPTTVTLPAAEVLALFSAGGSAGGSA [r18_219_TrMRF],2.73 ± 0.045
16,SAGGSAGGSAGGSGGSARIEVERLPDGLVLLRIYDPETGEEIEIPMPPDLARSFVFLNGSAGGSAGGSAGGS [r4_494_TrMRF],1.11 ± 0.045
17,SGSSMGPPDVKERLIDIPSSELSPEVLEEIIEEAIKEGYSVVTINIPEGKYITIELKDGKVTKITEKSLESA [r9_905_JUSTAS],1.76 ± 0.088
18,SAGGLAEEIVEELKERFPGMDVDIDVKEEEDPNNGWVKITIMVRVRNPDDNKPRHEIQLDIEIPVDDSAGGS [r8_207_TrROS],1.82 ± 0.086
19,SSLENLEPVSYDVTVEEGPTSPSGVTYTRITITEPGGSTATVTVTPESLTLDYSVRDKARVEALVRELLESA [r9_662_JUSTAS],1.04 ± 0.064
20,SAGGSAGGTPKLAETRKNGKKVLAPVEVDPETGVITVTPPDGTTEVVPASRPPPFIEEDPSLGSSAGGSAGG [r6_174_JUSTAS],1.03 ± 0.087
21,SAMKFKITEVKIISVEKKKDGKKTIVIEMKVEKGEEKITIEFDKNGKIKKVSVEKLPDGKTVRVTIEIDSAG [r14_189_TrROS_Hall],2.52 ± 0.49

row,Sequence,folding stability dG unfold [kcal/mol]
1,SMVFVEIFYDPIKKKKYIKIVIFLPPNDPEKIKELAEKIKKEIEKFFEELGLKVDKIEVFVFTFPPDFPLSA [r9_117_TrMRF],4.6 ± 0.22
2,SAGGSAGGSLVIPLPNGGRIEVLEVGEDYVLVRLVDPMPGTNKPRVSEIRLKLPPLKPPPPDKSAGGSAGGS [r12_959_TrMRF],2.28 ± 0.11
3,SAGGSAGGSAGMTVEDLEFDIPFESEEEAIEYLKKKLPKDYTIKPIGFEPENGKLKVKVTKKSAGGSAGGSA [r18_429_JUSTAS],0.8 ± 0.3
4,SAGGGVMIAIKKIDPKNGKLEIEIWMPEGFEDPDQRKEMLEMADSLADRLQELHGIPVKVTIHPFPNSAGGS [r16_304_TrROS],2.31 ± 0.12
5,SAGGSAGGSAPATITSIEVEERTGPDGRTYRVLRVRLADTGEEVEIVVPGMSLEEVLAALASSAGGSAGGSA [r18_345_TrROS_Hall],2.93 ± 0.082
6,SAGGSAGGSAMTRDVTIKVPPGVTPEEVFEKLKKENPNVTSYTTTTLPDGTITVTITIEDSSAGGSAGGSAG [r3_371_JUSTAS],4.05 ± 0.19
7,SAGGSKIEVKIEEENGTLTITVTVYDENGEQIAEITVTITLPAPKPPEKELVKAESPEEKEEALKQSAGGSA [r2_332_TrROS_Hall],1.65 ± 0.35
8,SAGGSAGGSAGGSMVKILIEKENELYEIYVPKDEIPLDELVKKAKELFPDIVKIEVFDDSAGGSAGGSAGGS [r4_235_TrMRF],0.966 ± 0.096
9,SAGGSAGGSGIKIIMEFIFPDDGYIFKIEIDIKPNPENGEPVIEMKIEMYPIDPGQPPDLKDLSAGGSAGGS [r12_700_TrROS],3.26 ± 0.2
10,SAGRIRKAIREAFGMDITSIDIDVKENPNGSKKVEIDIHMNNPSQRRRMADAIIEELGYPIKEIEITPMSAG [r5_542_TrROS],0.629 ± 0.17
11,SAGGSAGGSAGGMPIKVEEYELPNGEKILKEISPEGVVKVYKVDPVNGKKEVIEVIPINKSAGGSAGGSAGG [r7_898_JUSTAS],1.01 ± 0.19
12,SAGGEVKITVEKKGDGTVTVTITVKAKSLEDLLKALESLPGVEITKVEIEKDKETNEYTIRVTIKVKPSAGG [r13_796_TrROS_Hall],3.64 ± 0.15
13,SAGGSAGGSAKKKVIVIELPEDMTLEEALALAKALAPPGAEIVIRRDGKLYVIKIEDPEKLSAGGSAGGSAG [r3_50_TrROS_Hall],2.55 ± 0.17
14,SAGGMSPELAADPNVKRVLRFPEPGVFLAYYPEKGLLLLTPPDGKVLLIEAKPEEAEKLVESGLKPESAGGS [r16_745_TrMRF],-0.0606 ± 0.13
15,SKVTIYFPNMPPEEIIDAIRKNPGKPVEIWMMPNNPDRFKNWLQDAKIEVEPQPNPDGQPWVKMEIEVPDSA [r9_1138_TrROS],0.794 ± 0.078
16,SAGGMKKYLLTLNVTLERPDSEESITLTKEVDSLEEAEKLKEEIEKKLKEEYPGRISFDVTIEEIEESAGGS [r16_475_JUSTAS],4.13 ± 0.12
17,SAGGSAGGSAGSLTLVSTSSDETEEPVVRYREVYAGPVPVRVTAEESLENPGNPRLRVVLSAGGSAGGSAGG [r11_618_JUSTAS],-0.251 ± 0.14
18,SAGGSAGGSAGGSMKTVELSSEEEAKKIVEEAKKKGIPLTLVLTDPKTGNPKTFEFPLASAGGSAGGSAGGS [r4_188_JUSTAS],0.0568 ± 0.48
19,SAGMQLLPSATVTLTNPKTGETTTVSVQALRDELAARRGTTDPAAITEADIEAWAKEQGYDPITFTLPSAGG [r19_67_JUSTAS],2.78 ± 0.076
20,SAGGSAGGSAGGSMPEGTVLSVDPSTGLKVVYFPGENKLVFEEISPSNELVKRSEFPLSSAGGSAGGSAGGS [r4_192_JUSTAS],0.15 ± 0.13
21,SAGGSAGGSAGGSMKVILDKKNNELYILLKDENGKLLLAKITLLPNGEIKIEVYDLKDLSAGGSAGGSAGGS [r4_434_TrROS_Hall],3.56 ± 0.13

# Reference: the supplement of paper PMC12764529
